Read-outs that look alike come from different tables or passages of the source. Ends that are not written are not given here. * marks the point of attachment. Cholyl = C[C@H](CCC(=O)*)[C@H]1CC[C@H]2[C@@H]3[C@H](O)C[C@@H]4C[C@H](O)CC[C@]4(C)[C@H]3C[C@H](O)[C@]12C
What was measured:
Experiment in all cases: cell-based or functional assay
[1] = molecular target: natural β-amyloid peptide β-AP1-40 (human)
[2] = molecular target: natural β-amyloid peptide β-AP1-40 (human); remark: listed apart in the source
[3] = molecular target: natural β-amyloid peptide β-AP1-40 (human); remark: listed apart in the source
Target sequence in this assay (peptide, as listed by the source): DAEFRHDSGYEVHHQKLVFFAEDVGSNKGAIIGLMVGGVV

[4] = molecular target: natural β-amyloid peptide β-AP1-40 (human); remark: listed apart in the source
Target sequence in this assay (peptide, as listed by the source): as above

Binder	% Inhibition of Plateau; nucleation assay; 100 mole % [1]	Fold Increase in Lag Time; nucleation assay; 100 mole % [1]	also measured
EVHHQKLVFFAEDVG [unmodified Aβ11-25]	47%	~1 fold	–
Cholyl-HDSGYEVHHQKLVFF [cholyl-Aβ6-20]	–	–	% Inhibition of Plateau; nucleation assay; 100 mole % [2]: 100%; Fold Increase in Lag Time; nucleation assay; 10 mole % [2]: 2 fold; Fold Increase in Lag Time; nucleation assay; 100 mole % [2]: > 4.5 fold; % Inhibition of Plateau; nucleation assay; 10 mole % [3]: 43%; Fold Increase in Lag Time; nucleation assay; 10 mole % [3]: 2 fold; % Inhibition of Plateau; nucleation assay; 100 mole % [4]: 100%; Fold Increase in Lag Time; nucleation assay; 100 mole % [4]: > 4.5 fold
SNKGAIIGLMVGGVV [unmodified Aβ26-40]	~0%	0.8 fold	–
DAEFRHDSGYEVHHQ [unmodified Aβ1-15]	18%	~1 fold	–
DAEFRHDSGYKLVFFAEDVGSNKGAIIGLMVGGVV [Aβ1-10, 16-40(Δ11-15)]	~0%	~1.2 fold	–
DAEFRHDSGYEVHHQAEDVGSNKGAIIGLMVGGVV [Aβ1-15, 21-40(Δ16-20)]	~0%	1.55 fold	–
DAEFRHDSGYEVHHQKLVFFSNKGAIIGLMVGGVV [Aβ1-20, 26-40(Δ21-25)]	~0%	2.37 fold	–
HDSGYEVHHQKLVFF [unmodified Aβ6-20]	76%	1.66 fold	–
AEDVGSNKGAIIGLM [unmodified Aβ21-35]	~0%	~1 fold	–
KLVFFAEDVGSNKGA [unmodified Aβ16-30]	100%	> 4.5 fold	–

Source: patent US7658917 (PRAECIS PHARMACEUTICALS, dated 2010)
